According to patent US20140017255A1 (E R SQUIBB AND SONS L L C, published 2014):

How the values were obtained:
[1] = biological target: T1, human BTLA expressed on CHO cells (human, UniProt Q7Z6A9 31-289); test: flow cytometry, antibody titrated on CHO cells expressing human BTLA, PE-anti-huFc detection, FL2 GMFI
T1 construct: also called CHO/huBTLA; hBTLA

cynomolgus BTLA = biological target: T2, cynomolgus BTLA (cynomolgus, UniProt A0A2K5W7M7 31-289); test: flow cytometry, antibody titrated on CHO cells expressing cynomolgus BTLA, PE-anti-huFc detection, FL2 GMFI
T2 construct: whole, on cells; also called cyno BTLA; monkey BTLA
T2 sequence: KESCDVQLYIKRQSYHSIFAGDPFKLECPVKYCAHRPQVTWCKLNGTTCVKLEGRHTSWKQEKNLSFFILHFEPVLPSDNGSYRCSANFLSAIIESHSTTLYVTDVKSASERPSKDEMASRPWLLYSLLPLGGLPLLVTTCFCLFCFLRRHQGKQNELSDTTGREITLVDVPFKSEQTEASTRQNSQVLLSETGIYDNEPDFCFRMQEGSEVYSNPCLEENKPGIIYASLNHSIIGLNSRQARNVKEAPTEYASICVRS

T1 sequence (Q7Z6A9 other isoform, or with tags, fused parts or gaps limits assumed): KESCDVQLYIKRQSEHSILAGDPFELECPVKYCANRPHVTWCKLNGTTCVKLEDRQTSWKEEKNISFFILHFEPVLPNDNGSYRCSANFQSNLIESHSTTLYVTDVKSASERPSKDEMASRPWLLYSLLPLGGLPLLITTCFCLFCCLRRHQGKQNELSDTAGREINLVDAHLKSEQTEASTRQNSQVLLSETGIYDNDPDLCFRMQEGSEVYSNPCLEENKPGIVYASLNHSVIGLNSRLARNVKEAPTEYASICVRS

B1: hu Mab8D5 (IgG4 version, fully human monoclonal agonist anti-BTLA antibody) (antibody, V domains shown, not shown: a dimerising Fc or GST)
VH: EVQLVESGGGLVQPGGSLRLSCAASGFTISSYDMHWVRQATGKGLEWVSVIGPAGDTYYPGSVKGRFTISRENAKNSLYLQMNSLRAGDTAVYYCAREGMAAHNYYGMDVWGQGTTVTVSS
VL: not shown
notes: also called hu Mab8D5 G4; 8D5 (G4) agonist
EC50 [1]: 12.4 nM
EC50 (cynomolgus BTLA): 13.6 nM
